Assay results as given in patent US20250262210A1 (TRUSTEES OF COLUMBIA UNIVERSITY IN THE CITY OF NEW YORK, published 2025).

Key:
EMC1 = target: T1, EMC1 (human, UniProt Q8N766 23-993, limits assumed); assay: IP/MS, LZTR1 R810W-FLAG, U87
T1 sequence (looked up): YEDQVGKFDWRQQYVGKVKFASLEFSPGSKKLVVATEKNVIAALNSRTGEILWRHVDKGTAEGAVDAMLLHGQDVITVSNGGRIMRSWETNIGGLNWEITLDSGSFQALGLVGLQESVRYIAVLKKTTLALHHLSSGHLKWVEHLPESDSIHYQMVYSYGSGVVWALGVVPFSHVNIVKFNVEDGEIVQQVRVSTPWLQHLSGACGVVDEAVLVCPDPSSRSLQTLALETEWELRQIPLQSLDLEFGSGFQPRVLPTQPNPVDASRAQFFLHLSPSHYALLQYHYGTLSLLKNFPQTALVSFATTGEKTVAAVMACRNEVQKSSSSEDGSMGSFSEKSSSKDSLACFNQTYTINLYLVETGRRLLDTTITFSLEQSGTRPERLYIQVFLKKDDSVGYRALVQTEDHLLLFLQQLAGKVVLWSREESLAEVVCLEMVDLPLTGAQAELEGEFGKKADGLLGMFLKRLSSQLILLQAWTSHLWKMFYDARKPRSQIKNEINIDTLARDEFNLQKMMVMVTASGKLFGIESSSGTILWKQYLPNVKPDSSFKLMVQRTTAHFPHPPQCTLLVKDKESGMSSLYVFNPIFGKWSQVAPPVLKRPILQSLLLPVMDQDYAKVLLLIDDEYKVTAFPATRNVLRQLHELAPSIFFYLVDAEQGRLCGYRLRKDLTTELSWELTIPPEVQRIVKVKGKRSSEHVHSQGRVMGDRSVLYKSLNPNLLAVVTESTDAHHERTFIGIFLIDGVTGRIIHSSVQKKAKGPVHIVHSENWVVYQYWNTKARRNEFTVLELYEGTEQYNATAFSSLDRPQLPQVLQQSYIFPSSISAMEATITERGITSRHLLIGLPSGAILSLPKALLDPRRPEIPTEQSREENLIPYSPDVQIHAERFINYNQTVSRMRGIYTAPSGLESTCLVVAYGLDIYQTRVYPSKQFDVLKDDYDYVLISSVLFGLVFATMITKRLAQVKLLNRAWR
In short: (§1)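 Extracted peptides in 3% acetonitrile/0.1% formic acid ran on a 50 cm C18 column into an Orbitrap Fusion, with MaxQuant identification and spectral counting.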

WDR6 = target: T2, WDR6 (human, UniProt Q9NNW5 1-1121); assay: IP/MS, LZTR1 R810W-FLAG, U87
T2 sequence (looked up): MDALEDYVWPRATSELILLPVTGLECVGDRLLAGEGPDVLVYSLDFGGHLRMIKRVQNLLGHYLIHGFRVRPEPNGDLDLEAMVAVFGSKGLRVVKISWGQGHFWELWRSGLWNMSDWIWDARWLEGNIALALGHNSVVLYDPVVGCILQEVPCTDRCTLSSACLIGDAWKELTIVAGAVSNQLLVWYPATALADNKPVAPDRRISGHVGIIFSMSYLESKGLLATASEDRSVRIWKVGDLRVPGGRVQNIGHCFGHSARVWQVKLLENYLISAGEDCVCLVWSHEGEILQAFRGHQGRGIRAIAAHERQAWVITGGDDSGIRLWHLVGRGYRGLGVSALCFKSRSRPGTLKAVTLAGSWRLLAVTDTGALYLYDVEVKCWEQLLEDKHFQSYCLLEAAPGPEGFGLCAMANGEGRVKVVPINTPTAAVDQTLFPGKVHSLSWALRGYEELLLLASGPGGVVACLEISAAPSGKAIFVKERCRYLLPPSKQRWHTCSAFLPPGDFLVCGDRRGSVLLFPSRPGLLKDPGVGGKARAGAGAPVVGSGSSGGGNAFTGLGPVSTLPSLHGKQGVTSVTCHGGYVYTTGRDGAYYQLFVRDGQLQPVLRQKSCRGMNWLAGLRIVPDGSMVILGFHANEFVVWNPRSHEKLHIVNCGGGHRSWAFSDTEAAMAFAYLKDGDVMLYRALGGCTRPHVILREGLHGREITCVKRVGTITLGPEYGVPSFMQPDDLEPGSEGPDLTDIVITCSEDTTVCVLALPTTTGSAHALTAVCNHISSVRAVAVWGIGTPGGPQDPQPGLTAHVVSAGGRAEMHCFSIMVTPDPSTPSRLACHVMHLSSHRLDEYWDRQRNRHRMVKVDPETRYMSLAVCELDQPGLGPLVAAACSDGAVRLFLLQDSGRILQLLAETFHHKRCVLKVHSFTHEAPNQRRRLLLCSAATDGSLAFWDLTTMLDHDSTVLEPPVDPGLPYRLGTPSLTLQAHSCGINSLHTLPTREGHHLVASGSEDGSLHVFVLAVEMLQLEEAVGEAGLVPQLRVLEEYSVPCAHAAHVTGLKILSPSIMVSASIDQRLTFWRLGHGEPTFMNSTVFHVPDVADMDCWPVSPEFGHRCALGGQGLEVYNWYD
In short: as §1

B1: LZTR1 R810W-FLAG (other, human, UniProt Q8N653 1-840, looked up)
chain: MAGPGSTGGQIGAAALAGGARSKVAPSVDFDHSCSDSVEYLTLNFGPFETVHRWRRLPPCDEFVGARRSKHTVVAYKDAIYVFGGDNGKTMLNDLLRFDVKDCSWCRAFTTGTPPAPRYHHSAVVYGSSMFVFGGYTGDIYSNSNLKNKNDLFEYKFATGQWTEWKIEGRLPVARSAHGATVYSDKLWIFAGYDGNARLNDMWTIGLQDRELTCWEEVAQSGEIPPSCCNFPVAVCRDKMFVFSGQSGAKITNNLFQFEFKDKTWTRIPTEHLLRGSPPPPQRRYGHTMVAFDRHLYVFGGAADNTLPNELHCYDVDFQTWEVVQPSSDSEVGGAEVPERACASEEVPTLTYEERVGFKKSRDVFGLDFGTTSAKQPTQPASELPSGRLFHAAAVISDAMYIFGGTVDNNIRSGEMYRFQFSCYPKCTLHEDYGRLWESRQFCDVEFVLGEKEECVQGHVAIVTARSRWLRRKITQARERLAQKLEQEAAPVPREAPGVAAGGARPPLLHVAIREAEARPFEVLMQFLYTDKIKYPRKGHVEDVLLIMDVYKLALSFQLCRLEQLCRQYIEASVDLQNVLVVCESAARLQLSQLKEHCLNFVVKESHFNQVIMMKEFERLSSPLIVEIVRRKQQPPPRTPLDQPVDIGTSLIQDMKAYLEGAGAEFCDITLLLDGHPRPAHKAILAARSSYFEAMFRSFMPEDGQVNISIGEMVPSRQAFESMLRYIYYGEVNMPPEDSLYLFAAPYYYGFYNNRLQAYCKQNLEMNVTVQNVLQILEAADKTQALDMKRHCLHIIVHQFTKVSKLPTLWSLSQQLLLDIIDSLASHISDKQCAELGADI
notes: Stably expressed in U87 cells by lentivirus; also called LZTR1-FLAG-R810W; LZTR1 RW; not shown: FLAG tag
Question: What does the source list for B1?
Answer: binding result (EMC1): binds; binding result (WDR6): binds
